We go through five molecules from PMC10470402 (iScience, 2023).

Sequences and labels used below:
B3: S. pombe SmD1/SmD2 subcomplex, HT-tag removed (complex)
chain 1: not shown
chain 2: MADLVDKPRSELSEIELARLEEYEFSAGPLSVLQQAVKNHDQVLINCRNNKKLLARVKAFDRHSNMVLENVKEMWTEKKRTASGKKGKAINKDRFISKMFLRGDGVVLVVRIPSA
B4: S. pombe SmD3 (1-83)/SmB (1-93) subcomplex, HT-tag removed (complex)
chain 1: MSLCIKLLHETQGHIVTMELENGSTYRGKLIEAEDNMNCQMRDISVTARDGRVSHLDQVYIRGSHIRFLIVPDMLRNAPMFKV
chain 2: MGTTKMVSLLNHSLNVTTKDGRTFVGQLLAFDGFMNLVLSDCQEYRHIKKQNVPSNSVYEEKRMLGLVILRGEFIVSLSVQGPPPMDPSMRGS
B5: S. pombe HT-ICln (residues 1-160) (domain or fragment)
chain: MITKIDSLPKDLIRKVENGEKLLPNQEIVYFEEKTVPYKIRSDEESFPLGKLITLLVTSQSFILFDEEQNSGWKIPYETITLHAKQSKDKPYVYVQLEGEAIRPLLDHILKFERSSGTLHEAPSTEDENEFTDDFLELTLYVTDVDSCYQALCTCQSLHP

The series “SEC” deals with the molecule itself. Description: SEC. In general terms: In gel filtration, larger molecules generally elute earlier.
Series [1] concerns the target T1, S. pombe Gemin2/HT-SMNp complex (S. pombe, UniProt P0CU08 1-235; Q09808 1-35).
T1 sequence 1: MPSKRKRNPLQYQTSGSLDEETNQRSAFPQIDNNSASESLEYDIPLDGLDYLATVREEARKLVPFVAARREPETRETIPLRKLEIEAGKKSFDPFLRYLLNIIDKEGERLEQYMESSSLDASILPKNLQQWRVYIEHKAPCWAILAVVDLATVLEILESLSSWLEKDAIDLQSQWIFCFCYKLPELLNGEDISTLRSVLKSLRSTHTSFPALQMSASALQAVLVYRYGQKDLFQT
T1 sequence 2: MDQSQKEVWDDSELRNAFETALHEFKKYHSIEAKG
Description: pull-down.

The target in series [2] is T1, S. pombe Gemin2/HT-SMNp complex. As to the kind of experiment: pull-down. This is another data set of the same source.
The target in series [3] is T2, S. pombe Gemin6/Gemin7/Gemin8 complex, HT-tag removed (S. pombe, UniProt G2TRK8 1-93; G2TRR1 1-91; Q9USY8 1-166).
T2 sequence 1: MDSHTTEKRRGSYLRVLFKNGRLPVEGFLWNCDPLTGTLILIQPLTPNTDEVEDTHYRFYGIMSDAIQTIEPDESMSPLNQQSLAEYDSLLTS
T2 sequence 2: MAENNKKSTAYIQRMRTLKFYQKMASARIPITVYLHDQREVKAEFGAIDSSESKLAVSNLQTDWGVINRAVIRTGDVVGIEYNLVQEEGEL
T2 sequence 3: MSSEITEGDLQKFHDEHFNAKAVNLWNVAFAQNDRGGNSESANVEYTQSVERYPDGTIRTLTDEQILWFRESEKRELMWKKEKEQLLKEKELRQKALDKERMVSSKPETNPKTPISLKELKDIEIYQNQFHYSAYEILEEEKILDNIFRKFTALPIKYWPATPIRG
Description: SEC.

Series [4] deals with B5. As to the kind of experiment: pull-down.
Series [5] addresses B5. As to the kind of experiment: pull-down. The source holds these as a separate data set.
Series [6] deals with S. pombe SmD1/HT-SmD2 subcomplex (S. pombe, UniProt O42661 1-117; O14036 1-115). As to the kind of experiment: SEC + other: ion-exchange chromatography.
The target in series [7] is B3. As to the kind of experiment: SEC.
In series [8] the target is B4. Description: SEC.

Chain of S. pombe SmD1/HT-SmD2 subcomplex (O42661 whole entry, one chain of several): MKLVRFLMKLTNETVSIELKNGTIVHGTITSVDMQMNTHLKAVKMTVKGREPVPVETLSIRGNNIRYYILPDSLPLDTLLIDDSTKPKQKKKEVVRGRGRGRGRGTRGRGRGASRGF

B1: S. pombe SmF/SmE/SmG subcomplex, HT-tag removed (complex)
chain 1: not shown
chain 2: MSGRVQKVMIPPINFIFKLLQQHTPVSIWLFEQTDIRLQGQIRGFDEFMNIVLDDAVQVDAKNNKRELGRILLKGDNITLIQAI
chain 3: MSKAGAPDLKKYLDRQVFVQLNGSRKVYGVLRGYDIFLNIVLEDSIEEKVDGEKVKIGSVAIRGNSVIMIETLDKMT
As for B1, the “stoichiometry N” value in the series “SEC” was determined as 6. The “percent bound (D1/D2 and F/E/G added together)” value in series [1] was determined as 53.5%. In addition, in [2], the percent bound was determined as 14.1%.

B2: S. pombe SMN, full length, HT-tag removed (natural protein)
chain: MDQSQKEVWDDSELRNAFETALHEFKKYHSIEAKGGVSDPDSRLDGEKLISAARTEESISKLEEGEQMINQQTETTLEGDTHIQQFADNKGLSDEKPETRAAETHQEFMEVPPPIRGLTYDETYKKLIMSWYYAGYYTGLAEGLAKSEQRKD
As to B2, the binding result in [3] is on record as “binds”.
Regarding B3, the “percent bound (D1/D2 and F/E/G added together)” value in series [1] came to 59%; in series [4], 95%. For the same molecule, the percent bound in series [2] worked out at 19.8%; in series [5] it was 100%.
Turning to B4, in series [5], the percent bound amounted to 88.9%.
Consider B5, for which the binding result in series [6], in [7] and in series [8] was “binds” in each case.

A word on the stoichiometry N: it is the number of molecules, sites or subunits per partner or assembly.
